Laboratory results from paper PMC7801690, “Crystal structure of a thermophilic fungal cyanase and its implications on the catalytic mechanism for bioremediation” (Scientific Reports, 2021).

Tests used:
[1] = biological target: cyanase from the thermophilic fungus Thermomyces lanuginosus (Tl-Cyn) (Thermomyces lanuginosus); assay: crystal structure; sitting-drop vapour diffusion at 20 °C, protein 13 mg/mL; reservoir 2% Tacsimate (pH 8.0), 0.1 M Tris (pH 8.5), 16% PEG 3,350; malonate and formate bound in the active sites; 2.2 Å
N#CO = assay: purified protein; conditions: apparent Km; 0.05 to 3.0 mM potassium cyanate; bicarbonate-dependent
Excerpt: cyanase activity (ammonium release), Lineweaver-Burk on Tl-Cyn

| stoichiometry N [1] | Substance | Km (N#CO) [µM] |
| --- | --- | --- |
| 10 | cyanase from the thermophilic fungus Thermomyces lanuginosus (Tl-Cyn) (enzyme) |  |
|  | Tl-Cyn (Thermomyces lanuginosus) | 360 ± 40 |
